Source: publication PMC6426935

Tests used:
[1] = target: recombinant Der f 21 with N-terminal 6x-His-tag (Dermatophagoides farinae) (UniProt B2GM84); experiment: SEC-MALS; Superdex S75 increase, 20 mM Tris pH 7.9, 50 mM NaCl; 100 uL loaded at 5 mg/mL
[2] = target: recombinant Der f 21 with the His-tag cleaved (Dermatophagoides farinae) (UniProt B2GM84); experiment: static light scattering; crDer f 21 at 0.25, 1.00 and 1.50 mg/mL

Substance	stoichiometry N [1]	stoichiometry N [2]
recombinant Der f 21 with N-terminal 6x-His-tag (from UniProt B2GM84 25-136) (natural protein)	2	–
recombinant Der f 21 with the His-tag cleaved (from UniProt B2GM84 25-136) (natural protein)	–	2
